In patent US20220289806A1 (CYTIMM THERAPEUTICS, published 2022):

What was measured:
[1] = target: T1, IL-2Rαβγ on human T cells (human, UniProt P01589 22-272; P14784 27-551; P31785 23-369); assay: cell-based or functional assay
T1 sequence (looked up) 1: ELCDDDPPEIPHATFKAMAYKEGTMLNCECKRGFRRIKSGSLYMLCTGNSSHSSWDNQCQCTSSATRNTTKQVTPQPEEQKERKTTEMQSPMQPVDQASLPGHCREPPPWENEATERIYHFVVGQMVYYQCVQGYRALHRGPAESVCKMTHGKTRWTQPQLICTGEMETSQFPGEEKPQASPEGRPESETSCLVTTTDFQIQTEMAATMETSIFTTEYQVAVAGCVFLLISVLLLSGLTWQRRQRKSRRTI
T1 sequence (looked up) 2: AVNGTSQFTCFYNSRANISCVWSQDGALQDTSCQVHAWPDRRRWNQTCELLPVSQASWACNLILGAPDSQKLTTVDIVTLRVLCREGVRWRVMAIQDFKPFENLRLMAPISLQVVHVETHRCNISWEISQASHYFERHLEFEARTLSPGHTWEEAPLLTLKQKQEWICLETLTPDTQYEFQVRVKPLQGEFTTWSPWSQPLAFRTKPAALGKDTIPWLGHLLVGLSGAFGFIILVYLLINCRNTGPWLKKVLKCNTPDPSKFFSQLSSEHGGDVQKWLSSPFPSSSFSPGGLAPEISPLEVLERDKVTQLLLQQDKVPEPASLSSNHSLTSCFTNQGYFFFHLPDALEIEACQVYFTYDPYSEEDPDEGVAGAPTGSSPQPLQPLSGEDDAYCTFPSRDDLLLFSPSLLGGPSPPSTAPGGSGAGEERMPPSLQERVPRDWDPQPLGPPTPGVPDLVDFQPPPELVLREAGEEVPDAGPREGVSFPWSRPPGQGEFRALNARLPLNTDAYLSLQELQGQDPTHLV
T1 sequence (looked up) 3: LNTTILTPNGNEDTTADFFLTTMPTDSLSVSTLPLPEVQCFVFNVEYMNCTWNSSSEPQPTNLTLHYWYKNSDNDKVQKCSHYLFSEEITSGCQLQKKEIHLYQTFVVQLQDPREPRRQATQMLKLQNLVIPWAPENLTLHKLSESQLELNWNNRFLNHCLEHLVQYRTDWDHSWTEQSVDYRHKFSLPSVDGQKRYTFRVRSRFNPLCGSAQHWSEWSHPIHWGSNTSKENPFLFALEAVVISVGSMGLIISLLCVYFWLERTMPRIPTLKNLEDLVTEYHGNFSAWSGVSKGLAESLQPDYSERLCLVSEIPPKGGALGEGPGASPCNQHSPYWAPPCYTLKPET

[2] = target: T2, IL-2Rβγ on human CD8+CD45RA+CD25low naïve T cells (human, UniProt P14784 27-551; P31785 23-369); assay: cell-based or functional assay
T2 sequence (looked up) 1: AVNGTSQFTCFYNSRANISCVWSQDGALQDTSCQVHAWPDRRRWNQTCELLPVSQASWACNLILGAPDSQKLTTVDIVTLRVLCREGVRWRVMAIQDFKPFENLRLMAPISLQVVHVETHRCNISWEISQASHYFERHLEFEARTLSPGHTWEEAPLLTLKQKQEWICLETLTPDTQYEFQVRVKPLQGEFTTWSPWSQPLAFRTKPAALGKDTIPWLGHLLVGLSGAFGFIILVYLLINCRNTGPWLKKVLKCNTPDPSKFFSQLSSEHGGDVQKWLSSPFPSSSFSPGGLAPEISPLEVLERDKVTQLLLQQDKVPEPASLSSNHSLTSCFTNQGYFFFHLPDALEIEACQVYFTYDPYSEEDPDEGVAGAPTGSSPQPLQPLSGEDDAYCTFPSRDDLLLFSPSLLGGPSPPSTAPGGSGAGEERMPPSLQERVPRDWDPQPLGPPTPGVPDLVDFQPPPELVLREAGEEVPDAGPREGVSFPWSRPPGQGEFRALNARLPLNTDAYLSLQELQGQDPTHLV
T2 sequence (looked up) 2: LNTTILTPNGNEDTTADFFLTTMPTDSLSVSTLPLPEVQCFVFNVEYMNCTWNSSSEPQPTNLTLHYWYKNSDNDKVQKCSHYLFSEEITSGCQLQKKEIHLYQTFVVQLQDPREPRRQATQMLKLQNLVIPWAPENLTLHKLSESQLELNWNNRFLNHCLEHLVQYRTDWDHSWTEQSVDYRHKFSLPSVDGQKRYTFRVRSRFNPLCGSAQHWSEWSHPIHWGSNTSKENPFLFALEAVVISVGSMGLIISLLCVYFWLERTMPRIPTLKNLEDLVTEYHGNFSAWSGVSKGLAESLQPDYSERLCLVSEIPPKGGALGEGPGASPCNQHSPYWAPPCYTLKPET

[3] = target: T3, IL-2Rα in human Fc fusion protein format (ACROBiosystems) (human, UniProt P01589 22-217, limits assumed); assay: Octet QKe (biolayer interferometry): IL-2Rα-human Fc on AHC sensors, serial dilutions of the IL-2 variant [cont.]
T3 construct: Bought reagent, captured on anti-Human IgG Fc Capture (AHC) sensors; also called CD25; not shown: human Fc
T3 sequence (looked up): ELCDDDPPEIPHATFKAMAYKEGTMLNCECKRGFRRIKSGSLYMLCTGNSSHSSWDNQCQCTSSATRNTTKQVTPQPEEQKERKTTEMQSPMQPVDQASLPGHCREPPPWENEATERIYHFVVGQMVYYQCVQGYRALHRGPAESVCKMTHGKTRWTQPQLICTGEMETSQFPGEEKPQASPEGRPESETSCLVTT
From the text: IL-2Rα or IL-2Rβ in human Fc fusion protein format (ACROBiosystems) were captured on anti-Human IgG Fc Capture (AHC) sensors. […] Dissociation was detected following transfer of sensors into wells containing buffer alone. Data were collected and analyzed by Octet User Software. For analysis of the kinetics constants, 1:1 curve fitting model was used.

B1: Y31C-PEG20 + F42K (ligand)
chain: APTSSSTKKTQLQLEHLLLDLQMILNGINNCKNPKLTRMLTKKFYMPKKATELKHLQCLEEELKPLEEVLNLAQSKNFHLRPRDLISNINVIVLELKGSETTFMCEYADETATIVEFLNRWITFSQSIISTLT
modifications: maleimide-PEG 20K on Cys 31
notes: rhIL-2 (C125S) background with Y31C and F42K, PEGylated at Cys 31; not shown: His tag
[1]
  EC50 of STAT5 phosphorylation, CD25+CD4+ T (IL-2Rαβγ): 1.65 µg/mL
[2]
  EC50 of STAT5 phosphorylation, CD25-CD8+ naïve T (IL-2Rβγ): 1.6 µg/mL
[3]
  binding result: no binding (tested: not printed)
